Test results taken from publication PMC4678821.

Molecular target: casposon-encoded Aciduliprofundum boonei T469 Cas1 (Aciduliprofundum boonei T469)
Experiment: SEC; Superdex 200 16/60, step of the purification after TEV cleavage; data not shown

Substance “casposon-encoded Aciduliprofundum boonei T469 Cas1 (enzyme)” has a stoichiometry N of 2.
